This series in a line: protease stability score; higher = more stable; yeast display proteolysis, trypsin and chymotrypsin.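 Also: relative to predicted unfolded state with 0 unfolded-like and 1 meaning tenfold more protease.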
Sequence “TEDERLFHETLKIFEHAVQTGDEEELERMLDPNVRSTINGVRLHGRESFRKLFHIIWREIRFESVDVKRIHIQGDKMIWFTRIDGIFNGQRDLREVTIFADKIDGRWIFKEVDVR” returned a protease stability score of 2.1.
The result for “TEDERMNKEFHRLIWELIDTGDEETLRKLADPNTRLEVNGKTIIGREEFLSIWKHELHMLGVKHLEIHIRSVMFFENRVENDVELVLHIGEYEERRRIHIFLIKINGKWYHKSERIR” reads 1.46; that for “TEDERMVSEHLKQWLHSLRTGDEDTIQRLFDPHTRIIFEGHEFIGMEDMEEWLTKFHEEARSHKLIIKRIHIIGDKVHVEGVLDGEYNGRRHELKVIIIALKINGRWVMHQIEIR”, 1.97; that for “TEDETIAELALEEFIRILETGDEDDVNRLLDPHVRVDIDGKEIHGREHVYHHLRNLGVRIKIEWKRIRVVDGKVDSDGHVIERFNGRDIEVKSQFIMRKIDGRWVVHHFTRR”, 0.488.
“TEDHEDLRRFWEYFEEAFRTGDWKALSDLADPNVKIRIGDKLHVGRDDYYEFLRELIERVDHMELRLKRVHLVGDKLHVDSTLDLHVNGKRIHSRSRFTFTKVDGKWKVESVHYE” gave a protease stability score of 1.61.
With “TEDHEIVEDALRLWWTSVHTGDETLMSRLADPDVRLIVGDKHFHGREKFTRTMKELDDEMRFHHLEIKEFELFDGRIKINVRLRGTIGDKHTIFEVNVINLKVNGKWLLKSLEVR”, the protease stability score was 1.1.
As for “TEDHERIKKHIEILMHNLKTGNFEALVRMADPHVRFRLVQGNFHDETHGRDAWREVLERLGIDHIEIRDIRIHLYDGRLEMRIDGISRFNGREHKVELIIIIDKIDGRWRISEVELRIE”, the protease stability score was found to be 2.15.
Sequence “TEDHRDIYRIVKLLIEFFKTGDFDSLRHLADPNTRLDIGDKHRHGMDLILKEYMDEMHELGVKHFDIKIHDVEIQGDKAQWDLRLHIKVGDKIIELRVILHAVKVNGKWILHKIEFI” returned a protease stability score of 1.38.
The value for “TEDIEHMIKVVEIFLRAVTTGNEDEMKYLMDPRMRLVVGDKIHHGWEEIWKFLEHIREERDKVHTKDTKVYNGRMDINSRVSSTIHFNGVRIEIDHEVHFHIKKINGRWFIEEIRIQ” was 1.3; that for “TEDKEIAIRVTEHFIEAIYTGDEDRVRDLLDPEARLDVNGVELHGMRWFTFWLRQIRIHNMYIRHTEVQGDKVHVDMEQDVEFNGKRHELKSHFVLLKVNGRWTVKHYNVR” was 2.28; that for “TEDKEKDDEVAHLFLNAVRTGDEELFQDLVDPETRLNVNGQEIHGRENVFRHMRETWDKMGVDHVELKDRRHINGVLILHFEIRVGDKTIHVEYIIEKIDGRWILTKVHIR” was 0.569.
The result for “TEDLEKVHTFLNLLLHSRLTGDEDSLHRMADPNMRVDQGEYQHHGRELFIEWTKRELEHLRLRHYHLEDIDIYNGVVKVTGKMDVEVNGRRHHVDVTLIVLKINGRWHLKSVHIS” reads 1.24.
The sequence “TEDLHQYHEFLEEMIRWLRTGDWEAKHRNADPNVRLDFNGVDFHGMEIVAKIEMELRRRVDHIELEVKRSEIVNGRVHIDQVYHIEYNGRSYEVKSELIVKKVNGKWLIKEERVR” gave a protease stability score of 0.322.
The result for “TEDMEVMRRILELFIELVTTGDWEILRELLDPNVRIEIGDKQLHGRELVSNSLLLLGVDHIRVKDMKIQGEKLHIETENEINGVKLNTHILLLKINGRWLIKDLSVK” reads 1.29; that for “TEDQEEAKRLLHHLAHNWFTGNEHILTRLADPNTRMNVNGRDYHGREIMHETVREILERLGIDHFEIKDMRFIVQGEKIHIHIHIRSTVNGQEEDFRLSISVHKIDGRWVIKEINLHFI”, 0.511; that for “TEDQEQAEEHFREEIHHWRTGDEDQLRRLMDPNTRIEIGDKVLHGREHAELFLRRYKGLKIDRFEIRHRDHQGDYVILHTHFRGEVNGRDFENTVQLVVLKVDGRWFLKYIRVE”, 1.64.
In the case of “TEDQEQLEQHIRELTHNWHTGDFDSLKKLFDPNVKLEIGDKEYHGRELAEKYIRDELRHLRIEHVENREWRLINGVIILHTRLVGNIDGQRVERDTEIYVKKFDGQWIIEIFRVH”, the protease stability score came out at 1.34.
Turning to “TEDREEVRRWWKDLLRSLHTGDEEVLRKQIDPNVKLVDEDERSVGMDRFVKFMHFINREIRIERIHIKRLRLIDGQLEADTRMHVNIDGRIEETDVHILAKKVDGKWLLTSVILD”, the protease stability score worked out at 1.48.
The value for “TEDREIAKKFAEHMIHNYETGDFERILELLDPHTKIHVNGKDMHGREHWLHHLKKWGVDRIESEIRHVEIQGDKVKVDTELHYGDKTIERTVIFEKFDGRWVLREVRVD” was 1.12; that for “TEDRESILKLITMEQRNLRTGDEERWHELADPDYRLEFENREIHGREHAIRFMIETTLKLGVDHVELIINDVKWQGDKLHIDGHLRLEIGDKIIEERVIIINLKVNGRWLLRRKHVG” was 1.03; that for “TEDSKLITDVLRHFTEAFITGDEHTLKRMADPHVRTEWDGVHLHGWEKFLKFIVTEHRKLGIDHMRVEVDHIESYGDKIHVEGTLVVIINGQEISRHVELVMVKIDGVWLFKSRHFR” was 0.706.
The value for “TEDVRHADEMIERVIESLTTGDEESYKRLLDPDVRVLIGDKRIHGMEAVLEWFRRIDHVQIHDVRVREVEIVNGRADVRMEFDLTHRINGVEHRFKFESEMLLVKIDGQWRLHSDKRI” was 1.57.
The value for “TEDWELMKKAMEDLSRDLSTGDFERINRMLDPHTKLVVGDKEHHGMHAWEIFVKRIDHERSVEVRHFRIIGDKIDIDGTLHAEYGEKRITLKVHIIDSKVNGKWVIEVLSFK” was 1.4.
The sequence “TEEDEELKRWFDHFLESMITGDEHQNTELFDPNVLIHINGRQLHGRESAKIFIKEIRYEEIEVTHVRKYGNYVISSGVVRVRINGQESTIKTEVIVLKVNGQWLIRFVRFE” showed a protease stability score of 2.26.
In the case of “TEEDEEVEWVLKVLKETNDTGDEHTFRKLMDPRTKFHINGKDYIGMEAWREQVEKLGFKHIHDIKIEDMRVYNGRIQLHGRVDMVQGDKKIDMHVILIAVKVNGRWLLRFDIVE”, the protease stability score is 1.38.
In turn, “TEEDEFWERYVQLLRELWITGDEETWKNLADPNTRLHINGVTAHGREEVEHVYKKILEDLGIDVRHIHRIDVQGDKMRIDSRNNIDGQIFRLHIENHFVNGRLQFIRMEVH” had a protease stability score of 1.25.
In turn, “TEEDEHLYEYLESLFHHQRTGDEDKYERLLDPHARLDINGVDVIGMERVVHQWHEHWRRYKNMRIHFRHYEIKVFNGRAHLRIEGHMEYGDKKSEVELLFIAIKINGRWVVKQVHITVH” gave a protease stability score of 1.82.
Sequence “TEEDEHSRVAIEQTIRTLETGDEKEWERELDPHVRINIGEKHFHGRERAVELWLRLGVKHFRIKEVEHQGNKIIVHGSINVNGVKIEMYSIAEKIDGKWHLTHMHIP” registered a protease stability score of 1.53.
The result for “TEEDELAHRFWELIRTSFLTGDEESLERLADPNVRLEIGDKELHGREQFSHIMREFVERFKNLRVRVEEERVVGDKAESIEDFHFNGQNLKVLTIVKKINGKWVIKSIVIKIE” reads 1.7; that for “TEEDELLDKLAEIFSKVLKTGDFDELLSLFDPHTRLEVRQGDKEFHYHGREEVVRFWRHVRNRIDHSQLELHDVKSVNGVANSDSEVILRVNGKEIRIHHILLFVVINGRSKMVVIEFR”, 1.68; that for “TEEDELRELAIRLLEESLRTGNEQDLRELFDPNTRIVIGNKDFHGMEHWVRWVFEWRKEHGIKMRIEVKRVDVQGDKIRIDTVLHIDVGDKHHVTRTELHAKKVDGKWFSTELRIN”, 2.23.
The value for “TEEDELYRLLREHLKHVIETGDEELTQKNLDPHVKVELQIGDKKFTLHGRDQFTQWWKELHEKVKNIRFEDRHVQFFDGVAVVHVEINVNGRHIELIVIAEKVNGQWRIKHVEIRFL” was 1.53.
The result for “TEEDEMVHRQTEILEESIVTGDWKTLRNFVDPNMRLEIGDKTVHGWHAMSHILRRIDHINSVELHKVEVYGEKVHVDTIVDGIVDGRRTHLRTHIIALKFNGRWILTSNKIE” reads 1.03; that for “TEEDEMWHKFMEHYVHNFLTGDPNKAKKLADPDTRFEIDGKDVVGMERIIDEFLKVPGLRSEIKRVTFIGDKIHIDGRMIINGVETKVDIDIHVVNGVIKSIHIRVR”, 0.74; that for “TEEDEMWKELSDILLEIHETGDWDRLIRLVDPDVKVNIDGKDLHGWQEVAHTIRVLLEQFKGVKIIIRHVEIQGDKVHIHMEIRQGDKHYEVHLHYIVVNGKIKQMHMHRR”, 1.
Consider “TEEDERAKHWAERWIRLLETGDFEILTELLDPNVRVEIDINGKKIELHGMETISEDLRRRLEELGFKHFHIRDMKSQGDKSRVRGEVEVNGKPVDVHIVLNIVDGKLKTFRFENK”, for which the protease stability score worked out at 1.35.
The value for “TEEDEVTEELARNWVKYFLTGDEEQLHRLMDPNARFHTIVGDKHVHRHGRESIVHWIDHVLRHIRIEEVHIRRVHIWNGRVDINNEEIGRVGDKHYRTEVRIHLRIVDGVIRSVDIDIE” was 0.693; that for “TEEDHELRLAHEELHRDLDTGDWESFMRYMDPRARVHYNGREFIGREFAVKFYLDVLNKYKGLTFRIHDIRIFDGVLFVRVKFHFDGQWLHSSEVALKVNGQWHNHHVSFI” was 0.611.
Sequence “TEEDHFLKRELEKYIHSILTGDEDSTQHMIDPHARVFWNGVELHGRDAITKIMREWRIRHVRIERFEVQGDKIESHSISHMEINGKKHDHIFRITSEKYDGRWVIRELSIE” gave a protease stability score of 1.51.
In turn, “TEEDHHAKRMTKMWEEALITGNEHLVKEMFDPHARYRQGEWDLVGREEISKFVLTNLEEWRIDHHHTHSLHLQGEKSHVRSRVLGIFDGKRFETHLQVDVEVINGKIHDLTIRIT” displayed a protease stability score of 0.678.
The value for “TEEDHKAFTMVELFLNALTTGDERTLEKLVDPNVRVNIDGRDVHGMSILIRWREHLRFEFREVNNKRSELQGEKLHVDSEVDRHIRIGDKEDREHIRIHFHLLKINGRWFIEEVRML” was 1.36; that for “TEEDKLIEKAWRLFLHILHTGDWEEFHRLADPHMREDVNGVNLIGREDVLRHFIRLIEELGVKHSHVKDFRIHIFNGVIHTIMDVRTEYGDKSVDVRIHLEIEKIDGRWFLRTARIRLT” was 1.51; that for “TEEDKMEHDYAKLFMFLERTGDETLFEKLVDPDVKHIFDGVHLHGREEVASFLHHLLREWRIHHIDLKRVDVVNGKIEIDGRRNGDFDGKRYETHFTIHVFLYDGRIKWFEIRIR” was 1.46.
The result for “TEEDRETEKFLRILQEVHRTGDWRRFDEFLDPNVRIHIGDKEYHGREEFTRFFKEMGIDHHEVKHYRLVDGQLDLDVTERFNGVTVKTKLITHKFDGRWLITEIRVK” reads 1.19; that for “TEEDRFAHEFVRKWIENFLTGNEEKLHELADPNMKIDVGDKHLHGMEEWTRFLRDLGWRTEIRLRDIEVQGNKAFIRGEVHISINGRTDKTETRIILHVVNGRLKEVYVHHQ”, 1.53; that for “TEEDRLVDKITKELLTALTTGDEEIFLELLDPNARVEYNGKEMHGREFYRKIFEEEEKKIKNLRVEIHDYDAQGDKIHVDQRRHFNGRTYDYRLHYLVVNGKVKSVFVRIL”, 0.831.
As for “TEEEDEASRLMEEFLKHHETGDWEELKKMADPDARYHETVNGKRIERHGRDDLITWLRKFLEKFKNMRLHIDEMRLIGNKNILHGTLRIGDKDIESRIILIIIDGRIKEIEIIIK”, the protease stability score was 1.

The values above are taken from the NTF2 design screens of Basanta et al. (2020).
